Source: US20160186156A1 (YEDA RESEARCH AND DEVELOPMENT, published 2016)

Molecular target: T1, primary hexavalent scaffold CohII-C-A-CBM-T-G-F
T1 chain: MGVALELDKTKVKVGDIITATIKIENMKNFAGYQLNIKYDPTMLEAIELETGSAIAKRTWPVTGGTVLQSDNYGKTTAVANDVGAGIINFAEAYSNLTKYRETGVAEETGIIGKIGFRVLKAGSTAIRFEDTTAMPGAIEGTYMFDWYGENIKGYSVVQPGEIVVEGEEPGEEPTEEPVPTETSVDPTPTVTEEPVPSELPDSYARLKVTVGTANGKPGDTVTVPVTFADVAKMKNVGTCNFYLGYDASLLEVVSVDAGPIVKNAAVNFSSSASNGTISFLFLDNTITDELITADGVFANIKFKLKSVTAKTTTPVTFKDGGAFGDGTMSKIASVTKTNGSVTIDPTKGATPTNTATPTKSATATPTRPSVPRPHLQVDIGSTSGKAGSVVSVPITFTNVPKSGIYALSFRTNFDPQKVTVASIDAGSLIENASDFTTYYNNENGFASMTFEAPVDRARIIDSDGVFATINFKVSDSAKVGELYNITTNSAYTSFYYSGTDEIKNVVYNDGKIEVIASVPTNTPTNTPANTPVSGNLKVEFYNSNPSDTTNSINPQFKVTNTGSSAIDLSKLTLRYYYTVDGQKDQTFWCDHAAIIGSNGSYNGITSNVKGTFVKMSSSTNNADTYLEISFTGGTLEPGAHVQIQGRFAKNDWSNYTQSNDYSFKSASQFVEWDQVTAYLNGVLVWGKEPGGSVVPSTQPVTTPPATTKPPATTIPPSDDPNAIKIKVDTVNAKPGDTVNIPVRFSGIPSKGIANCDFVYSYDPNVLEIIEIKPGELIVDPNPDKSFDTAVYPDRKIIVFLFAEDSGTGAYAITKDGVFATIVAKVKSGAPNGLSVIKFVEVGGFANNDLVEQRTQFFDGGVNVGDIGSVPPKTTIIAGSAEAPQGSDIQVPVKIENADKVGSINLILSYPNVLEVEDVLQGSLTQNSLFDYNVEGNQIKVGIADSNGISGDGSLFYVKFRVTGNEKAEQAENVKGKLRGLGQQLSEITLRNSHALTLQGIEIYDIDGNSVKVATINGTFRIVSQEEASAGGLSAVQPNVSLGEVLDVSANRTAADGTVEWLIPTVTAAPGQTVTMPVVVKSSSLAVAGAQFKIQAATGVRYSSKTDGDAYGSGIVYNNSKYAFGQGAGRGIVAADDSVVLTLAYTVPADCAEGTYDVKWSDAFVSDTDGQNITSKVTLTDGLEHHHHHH
Test: cell-based or functional assay

B1: adaptor scaffold CBM-A-B-T-DockII (other)
chain: MANTPVSGNLKVEFYNSNPSDTTNSINPQFKVTNTGSSAIDLSKLTLRYYYTVDGQKDQTFWCDHAAIIGSNGSYNGITSNVKGTFVKMSSSTNNADTYLEISFTGGTLEPGAHVQIQGRFAKNDWSNYTQSNDYSFKSASQFVEWDQVTAYLNGVLVWGKEPGGSVVPSTQPVTTPPATTKPPATTKPPATTIPPSGSDLQVDIGSTSGKAGSVVSVPITFTNVPKSGIYALSFRTNFDPQKVTVASIDAGSLIENASDFTTYYNNENGFASMTFEAPVDRARIIDSDGVFATINFKVSDSAKVGELYNITTNSAYTSFYYSGTDEIKNVVYNDGKIEVIASPTPTQSATPTVTPSATATPTQSATPTVTPSSPGNKMKIQIGDVKANQGDTVIVPITFNEVPVMGVNNCNFTLAYDKNIMEFISADAGDIVTLPMANYSYNMPSDGLVKFLYNDQAQGAMSIKEDGTFANVKFKIKQSAAFGKYSVGIKAIGSISALSNSKLIPIESIFKDGSITVTNTPTNTISVTPTNNSTPTNNSTPKPNPLSDGVVVEIGKVTGSVGTTVEIPVYFRGVPSKGIANCDFVFRYDPNVLEIIGIDPGDIIVDPNPTKSFDTAIYPDRKIIVFLFAEDSGTGAYAITKDGVFAKIRATVKSSAPGYITFDEVGGFADNDLVEQKVSFIDGGVNVGNATRSTNKPVIEGYKVSGYILPDFSFDATVAPLVKAGFKVEIVGTELYAVTDANGYFEITGVPANASGYTLKISRATYLDRVIANVVVTGDTSVSTSQAPIMMWVGDIVKDNSINLLDVAEVIRCFNATKGSANYVEELDINRNGAINMQDIMIVHKHFGATSSDYDAQLEHHHHHH
  wheat straw degradation, reducing sugars released after 48 hours incubation at 50 C (FIG. 5, Column 7 against Columns 4 and 6): ~2 fold
